Measurements published in patent US6962792B1, “Methods and means for inhibition of Cdk4 activity” (Cyclacel Limited, priority 1996, dated 2005).
Entries after “also recorded” stand apart in the source; their conditions may differ. Read-outs that look alike come from different tables or passages of the source. Each block holds one molecule with its values, some of them ahead of it. Where a SMILES comes first, the peptide text is derived from it. Where no end group is shown, it is not given here.

Columns and labels:
cyclin D1-Cdk4 [1] = molecular target: T1, cyclin D1-Cdk4 (Homo sapiens, UniProt P11802+P24385); assay: Cyclin D1-Cdk4 GST-Rb phosphorylation assay (Sf9 insect cell lysate); format: biochemical
T1 construct: made in house; host or cells: Sf9 insect cells, baculovirus co-infection; unpurified lysate
T1 sequence (P11802 whole entry): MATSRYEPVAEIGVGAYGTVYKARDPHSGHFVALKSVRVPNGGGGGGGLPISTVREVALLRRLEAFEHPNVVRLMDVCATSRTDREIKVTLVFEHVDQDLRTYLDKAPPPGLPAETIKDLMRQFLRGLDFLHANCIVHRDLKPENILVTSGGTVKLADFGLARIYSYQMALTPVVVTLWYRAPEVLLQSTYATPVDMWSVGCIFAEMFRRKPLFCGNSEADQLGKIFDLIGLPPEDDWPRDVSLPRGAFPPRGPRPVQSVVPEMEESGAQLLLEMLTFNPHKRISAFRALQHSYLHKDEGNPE
T1 sequence (P24385 whole entry): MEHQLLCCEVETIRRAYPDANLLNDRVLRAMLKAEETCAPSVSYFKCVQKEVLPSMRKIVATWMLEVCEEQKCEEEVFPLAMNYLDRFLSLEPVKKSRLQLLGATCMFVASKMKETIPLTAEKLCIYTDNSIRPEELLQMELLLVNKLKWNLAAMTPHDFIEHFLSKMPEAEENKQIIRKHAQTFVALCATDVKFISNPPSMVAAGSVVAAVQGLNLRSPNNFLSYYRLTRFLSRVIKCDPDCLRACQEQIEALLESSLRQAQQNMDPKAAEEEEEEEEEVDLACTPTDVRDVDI
Procedure: (§1) “x” indicates no addition of peptide.
(§2) Cyclins and CDKs—Cdk4 and cyclin D1, Cdk2 and cyclin E and Cdc2 and cyclin B were co-expressed in Sf9 insect cells infected with the appropriate baculovirus constructs. The cells were harvested two days after infection by low speed centrifugation and the pellet was lysed in an equal volume of 10 mM Hepes, pH 7.4 containing: 10 mM NaCl, 1 mM EDTA, and 0.1 mM phenylmethane sulphonyl fluoride, 2 mM DTT and centrifuged at 14000×g for 15 min. The supernatant was removed, aliquoted and immediately frozen in liquid nitrogen. Thawed lysate was used only once and was never refrozen. Labelled Cdk4 and cyclin D1 were produced by translation in the presence of [^35S] methionine using a rabbit reticulocyte lysate in vitro translation kit (Promega).
(§3) Phosphorylation of GST-Rb—Cdk4 activity was measured using the cyclin D1-Cdk4 containing insect cell lysate described above. Extract (1 μl) was added to a final reaction volume of 10 μl, containing: 50 mM Hepes, pH 7.4, 10 mM MgCl2, 2.5 mM EGTA, 1 mM DTT, 10 mM β-glycerophosphate, 1 mM NaF, 10 mM PKI, 50 μM ATP containing [^32P] ATP (1000 cpm/pMol) and 0.5 μg GST-Rb. […] The samples were analysed by SDS-PAGE on 12% gels followed by auto-radiography and quantification using a Bio-Imager.

[2] = molecular target: cyclin D1-Cdk4 complex co-expressed in Sf9 insect cells (lysate) (UniProt P11802); assay: cell-based or functional assay
Chain of cyclin D1-Cdk4 complex co-expressed in Sf9 insect cells (lysate) (UniProt P11802) (P11802 whole entry, chain 1 of 2): as the sequence (P11802 whole entry) above
Chain of cyclin D1-Cdk4 complex co-expressed in Sf9 insect cells (lysate) (UniProt P11802) (P24385 whole entry, chain 2 of 2, further chain): as the sequence (P24385 whole entry) above

HaCaT cells = assay: Cell cycle measurements by BrdU/FACS in HaCaT cells; format: cell-based, human; conditions: for G1-, S-phase distribution / G1 arrest: proliferating HaCaT cells, 24 hours, Peptide-I and Peptide-III 25 μM, Peptide-II 50 μM
Procedure: The peptides were added to proliferating HaCaT cells, grown in DMEM plus 10% FCS. The cells were incubated for 24 hours pulse labelled during with 15 μM BrdU, fixed and then analysed by FACS.
Carrier linked peptides were designed for delivery into proliferating HaCaT cells (see FIG. 9). Cells were seeded on 30mm culture plates and grown to 50% confluency in Dulbecco's modified Eagle's medium (DMEM) supplemented with 10% (v/v) foetal calf serum (FCS). Peptides were added to the medium and the cells were incubated for 24 hours. During the last 30 minutes of the incubation the cells were pulse labelled in the presence of 15 μM BrdU. The cells were trypsinised, fixed in absolute alcohol and prepared for FACS analysis using a single laser flow cytometer (Becton-Dickinson, FACScan) as previously described (Renzing et al, 1996).

[3] = system: pRb phosphorylation in HaCaT cells; assay: pRb phosphorylation in HaCaT cells (Western blot); format: cell-based, human; conditions: serum-starved HaCaT cells released with 10% FCS, 24 hour time course; Peptide-I 25 μM, Peptide-II 50 μM
Source text: Samples were taken at the times shown and analysed by SDS-PAGE/Western blot stained for pRb. pRb represents hypophosphorylated Rb protein and pRb* refers to hyperphosphorylated Rb protein. It should be pointed out that equal amounts of total protein were loaded per lane and that the antibody appears to preferentially recognise phosphorylated forms of the Rb protein. Peptide I corresponds with SEQ ID NO:24; peptide II corresponds with SEQ ID NO:25; and peptide III corresponds with SEQ ID NO:26.
HaCaT cells were seeded on 30 mm culture plates at 25% confluency in DMEM with 10% FCS. The FCS was withdrawn after 24 hours and the cells were starved for 72 hours. At the end of this period the medium was supplemented with 10% FCS and carrier linked peptides. Samples were taken over a 24 hour time course and the cells were lysed in RIPA buffer (50 mM Tris-HCl, pH 8.0, containing 150 mM NaCl, 1.0% (v/v) NP-40, 0.5% (w/v) DOC, 0.1% (w/v) SDS, 1 mM PMSF, 0.1 mg/ml aprotinin and 0.5 mg/ml leupeptin) for 30 minutes at 4° C. The phosphorylation statues of pRb was determined by Western blot analysis, as previously described (Fahraeus et al, 1996) except that the blot was probed with a pRb polyclonal antibody (C-15, Santa Cruz).

cyclin D1-Cdk4 [4] = molecular target: T1, cyclin D1-Cdk4; assay: Relief of p21WAF1 inhibition in cyclin D1-Cdk4 GST-Rb phosphorylation assay; format: biochemical; conditions: peptide 1, 5, 17 & 34 μM, fixed concentration of p21WAF1
cyclin D1-Cdk4 [5] = molecular target: T1, cyclin D1-Cdk4; assay: Peptide phosphorylation by cyclin D1-Cdk4; format: biochemical; conditions: conditions where 2.4 nMol 32P incorporated per nMol GST-Rb
Procedure: The biotinylated peptides (1 μg) were incubated for 30 min at 30° C. in a final volume of 20 μl containing: 50 mM Hepes, pH 7.4, 10 mM MgCl2, 2.5 mM EGTA, 1 mM DTT, 10 mM β-glycerophosphate, 1 mM NaF, 10 mM PKI, 50 μM ATP containing [^32P]ATP (6000 cpm/pMol) and either 1 μl of cyclin D1-Cdk4 insect cell lysate, 1 μl of uninfected insect cell lysate or 0.02 mU of protein kinase C plus 0.5 mM CaCl2, 100 mg/ml phosphatidyl serine and 20 mg/ml diacylglycerol. The reactions were stopped by heating at 60° C. for 5 min and streptavidin agarose beads were added (10 μl packed cell volume washed with 3×PBS) and incubated with shaking at 4° C. for 30 min. The beads were washed extensively with PBS containing 3% (v/v) Tween-20 and the incorporation of radioactivity into the peptides was determined by Cerenkov counting.

cyclin B-Cdc2 = molecular target: T2, cyclin B-Cdc2 (Homo sapiens, UniProt P06493); assay: Cyclin B-Cdc2 histone H1 kinase assay; format: biochemical; conditions: concentrations up to 20 μM
T2 construct: made in house; host or cells: Sf9 insect cells, baculovirus co-infection; unpurified lysate
T2 sequence (P06493 whole entry): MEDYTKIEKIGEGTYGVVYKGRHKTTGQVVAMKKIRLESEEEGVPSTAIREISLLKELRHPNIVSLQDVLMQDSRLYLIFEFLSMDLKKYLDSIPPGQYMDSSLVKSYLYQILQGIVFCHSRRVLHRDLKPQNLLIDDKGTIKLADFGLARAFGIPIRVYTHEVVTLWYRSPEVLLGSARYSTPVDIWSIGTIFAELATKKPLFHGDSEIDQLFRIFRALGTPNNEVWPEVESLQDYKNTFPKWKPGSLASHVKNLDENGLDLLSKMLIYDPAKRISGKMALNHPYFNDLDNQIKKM
T2 sequence (P14635 whole entry partner): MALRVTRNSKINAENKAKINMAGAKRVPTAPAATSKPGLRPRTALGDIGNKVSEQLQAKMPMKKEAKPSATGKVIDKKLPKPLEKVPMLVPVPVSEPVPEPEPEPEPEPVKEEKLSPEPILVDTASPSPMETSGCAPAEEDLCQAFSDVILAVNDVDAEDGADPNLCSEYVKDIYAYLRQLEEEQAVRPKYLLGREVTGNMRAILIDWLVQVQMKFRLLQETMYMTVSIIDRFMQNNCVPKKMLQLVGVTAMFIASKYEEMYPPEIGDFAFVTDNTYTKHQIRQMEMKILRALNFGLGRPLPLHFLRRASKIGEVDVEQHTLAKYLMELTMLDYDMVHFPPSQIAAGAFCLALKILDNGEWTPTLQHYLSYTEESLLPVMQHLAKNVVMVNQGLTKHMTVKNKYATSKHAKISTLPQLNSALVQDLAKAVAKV
Procedure: The conditions were identical to those described in the Experimental Procedures for cyclin D1-Cdk4 except that histone H1 (0.5 μg/assay) was used as the substrate for cyclin B-Cdc2.

Soas2 cells = assay: Cell cycle arrest in Rb negative cells; format: cell-based
cyclin D1-Cdk4 [6] = molecular target: T3, cyclin D1-Cdk4 (Homo sapiens, UniProt P11802); assay: Cyclin D1-Cdk4 GST-Rb phosphorylation assay (Sf9 insect cell lysate); format: biochemical; conditions: GST-Rb substrate; read-out: I0.5 for inhibition of Cdk4 activity
T3 construct: made in house; host or cells: Sf9 insect cells, baculovirus co-infection; unpurified lysate
T3 sequence (P11802 whole entry): as the sequence (P11802 whole entry) above
T3 sequence (P24385 whole entry, further chain): as the sequence (P24385 whole entry) above
Procedure: as §1, §2, §3

[7] = molecular target: cyclin D1-Cdk4 complex co-expressed in Sf9 insect cells (lysate) (UniProt P11802 1-303; P24385 1-295); assay: cell-based or functional assay
Chain of cyclin D1-Cdk4 complex co-expressed in Sf9 insect cells (lysate) (UniProt P11802 1-303; P24385 1-295) (P11802 whole entry, chain 1 of 2): as the sequence (P11802 whole entry) above
Chain of cyclin D1-Cdk4 complex co-expressed in Sf9 insect cells (lysate) (UniProt P11802 1-303; P24385 1-295) (P24385 whole entry, chain 2 of 2): as the sequence (P24385 whole entry) above

[8] = molecular target: T4, cyclin D1 labelled with [35S]methionine, translated in rabbit reticulocyte lysate (human, UniProt P24385 1-295, [35S]methionine label); assay: peptide precipitation of 35S-labelled protein from reticulocyte lysate, SDS-PAGE and autoradiography
T4 construct: also called 35S-labelled cyclin D1
T4 sequence (P24385 whole entry): as above
Procedure: (§4) After extensive washing bound proteins were analysed using SDS-PAGE followed by autoradiography. The bands were quantified using a Bio-Imager and Whole Band Analysis Software (Millipore).
(§5) Peptide (1.5 μg) was diluted in 100 μl of PBS and incubated with 10 μl of packed streptavidin-agarose beads (Sigma) for 1 h at room temperature. Unbound peptide was removed by extensive washing with PBS and the beads, plus bound peptide, were incubated for 1 h at 4° C. with reticulocyte lysate containing either Cdk4 or cyclin D1 labelled with [^35S] methionine. […] The bound protein was analysed by SDS-PAGE followed by auto-radiography and quantification of the ^35S-labelled protein using a Bio-Imager and Whole Band Analysis Software (Millipore).

[9] = molecular target: T5, Cdk4 labelled with [35S]methionine, translated in rabbit reticulocyte lysate (human, UniProt P11802 1-303, [35S]methionine label); assay: as above
T5 construct: also called 35S-labelled Cdk4
T5 sequence (P11802 whole entry): as the sequence (P11802 whole entry) above
Procedure: as §4, §5

Molecule: p16INK4 derived peptide (Fahraeus et al., 1996)
I0.5 for inhibition of cyclin D1-Cdk4 activity [2]: 16.3 µM

Molecule: Peptide-III: carrier linked control peptide 10 lacking the last 4 amino acids (LIFS), SEQ ID NO:26 (RQTSMTDFYHSKRRRQIKIWFQNRRMKWKK)
G1-, S-phase distribution / G1 arrest (HaCaT cells): no detectable effect on the ability of HaCaT cells to enter S-phase

Molecule: Peptide-II: truncated peptide 10 coupled to carrier peptide, SEQ ID NO:25 (KRRLIFSKRQIKIWFQNRRMKWKK)
fold lower I0.5 in vitro than free peptide (cyclin D1-Cdk4 [1]; carrier linked versus free peptide, data not shown): approximately 50 fold
G1-, S-phase distribution / G1 arrest (HaCaT cells): effectively promoted a G1-phase arrest
fold less active as growth suppressor than Peptide-I (HaCaT cells; versus Peptide-I): 2 fold
phosphorylation status of pRb [3]: totally prevented the phosphorylation of pRb

Molecule: R-A mutant: peptide 10 with R-A at residue 15, equivalent to residue 155 of the full length protein (KRRQTSMTDFYHSKARLIFSSGSG)
block of inhibitory activity of full length p21WAF1 (cyclin D1-Cdk4 [4]): able to block the inhibitory activity of full length p21^WAF1

Molecule: 8: synthetic peptide of the p21WAF1 library, SEQ ID NO:8 (AEEDHVDLSLSCTLVPRSGE) [compound 8]
cyclin D1-Cdk4 inhibitory activity (cyclin D1-Cdk4 [1]): only weak inhibition
inhibition of cyclin D1-Cdk4 activity (cyclin D1-Cdk4 [1]; peptide at 17 μM): inhibited cyclin D1-Cdk4 activity

Molecule: Peptide-I: peptide 10 with M to A at position 7 synthesised onto Antennapedia carrier peptide, SEQ ID NO:24 (KRRQTSATDFYHSKRRLIFSRQIKIWFQNRRMKWKK)
G1-, S-phase distribution / G1 arrest (HaCaT cells): number of cells entering S-phase in the presence of Peptide-I was dramatically reduced and the G1 population showed a concomitant increase
phosphorylation status of pRb [3]: pRb remained hypophosphorylated
cell cycle arrest / G1 population in pRb negative cells (Soas2 cells): increase in the population of cells in G1 phase

Molecule: CC[C@H](C)[C@H](NC(=O)[C@H](CC(C)C)NC(=O)[C@H](CCCNC(=N)N)NC(=O)[C@H](CCCNC(=N)N)NC(=O)[C@@H](N)CCCCN)C(=O)N[C@@H](Cc1ccccc1)C(=O)N[C@@H](CO)C(=O)N[C@@H](CCCCN)C(=O)O (H-KRRLIFSK-OH; C-terminus assumed)
IC50 (cyclin D1-Cdk4 [6]): ~100 µM
cyclin D1-Cdk4 inhibitory activity (cyclin D1-Cdk4 [1]): completely inhibit cyclin D1-Cdk4 activity
fold higher I0.5 than full length peptide (cyclin D1-Cdk4 [1]; versus full length peptide 10): approximately 1000 fold

Molecule: KRRQTSMTDFYHSKRRLIFSSGSG (not fully specified; Biotin-SGSG spacer at the C-terminus; free N-terminus) [peptide 10 (residues 141-160 of p21^WAF1)]
I0.5 for inhibition of Cdk4 activity (GST-Rb phosphorylation) [7]: 0.1 µM

B2: peptide 4 (residues 46-65 of p21^WAF1) (peptide)
peptide: H-RERWNFDFVTETPLEGDFAWSGSG
modifications: not fully specified (C-terminus); also: biotin on C-terminal SGSG spacer, order not given here
notes: Synthetic biotinylated peptide
binding result [8]: no binding

B4: peptide 2 (residues 16-35 of p21^WAF1) (peptide)
peptide: H-KACRRLFGPVDSEQLSRDCDSGSG
modifications: not fully specified (C-terminus); cysteine pairing not given here; also: biotin on C-terminal SGSG spacer, order not given here
notes: Synthetic biotinylated peptide, captured on streptavidin-agarose in the precipitation assay; The order of biotin and SGSG at the C-terminus is not spelled out
I0.5 for inhibition of Cdk4 activity (GST-Rb phosphorylation) [7]: 2 µM
binding result [9]: no binding

Molecule: KRRLIFSKRQIKIWFQNRRMKWKK [Peptide-II (truncated peptide 10 linked to carrier peptide)]
fold decrease in fold I0.5 in vitro against the free truncated peptide 10 [7]: ~50 fold

Continued, in another order:

cyclin D1-Cdk4 inhibitory activity (cyclin D1-Cdk4 [1]; concentrations of up to 35 μM): no inhibitory activity
Molecule: peptide 4: residues 46-65 of p21WAF1, SEQ ID NO:4, Biotin-SGSG spacer (RERWNFDFVTETPLEGDFAW; not fully specified (N-terminus, C-terminus))
cyclin D1-Cdk4 inhibitory activity (cyclin D1-Cdk4 [1]): no detectable activity; also recorded: no Cdk4 inhibitory activity

cyclin D1-Cdk4 inhibitory activity (cyclin D1-Cdk4 [1]): potent inhibitor of Cdk4 activity
inhibition of cyclin D1-Cdk4 activity (cyclin D1-Cdk4 [1]; peptide at 17 μM): completely inhibited enzyme activity
Molecule: peptide 11: extreme C-terminal peptide of p21WAF1, SEQ ID NO:11 (TSMTDFYHSKRRLIFSKRKP)

inhibition at 17 µM (cyclin D1-Cdk4 [1]; peptide at 17 μM, read-out: inhibition of kinase activity): ~80%
Molecule: CC(C)C[C@H](NC(=O)[C@H](CCCNC(=N)N)NC(=O)[C@H](CCCNC(=N)N)NC(=O)[C@H](CS)NC(=O)[C@H](C)NC(=O)[C@@H](N)CCCCN)C(=O)N[C@@H](Cc1ccccc1)C(=O)NCC(=O)N1CCC[C@H]1C(=O)N[C@H](C(=O)N[C@@H](CC(=O)O)C(=O)N[C@@H](CO)C(=O)N[C@@H](CCC(=O)O)C(=O)N[C@@H](CCC(N)=O)C(=O)N[C@@H](CC(C)C)C(=O)N[C@@H](CO)C(=O)N[C@@H](CCCNC(=N)N)C(=O)N[C@@H](CC(=O)O)C(=O)N[C@@H](CS)C(=O)N[C@@H](CC(=O)O)C(=O)O)C(C)C [peptide 2] (H-KACRRLFGPVDSEQLSRDCD-OH; C-terminus assumed)
substrate for cyclin D1-Cdk4 (cyclin D1-Cdk4 [5]): neither peptide 2 nor peptide 10 were substrates for cyclin D1-Cdk4
effect on Cdc2-cyclin B histone H1 kinase activity (cyclin B-Cdc2): neither peptide 2 nor peptide 10 had a significant effect

loss of inhibitory activity against cyclin D1-Cdk4 relative to peptide 10 [7]: > 60%
B1: peptide 10 mutant with R-A at residue 15 of peptide 10 (residue 155 of the full length protein) (peptide)
peptide: H-KRRQTSMTDFYHSKARLIFSSGSG
modifications: not fully specified (C-terminus); also: biotin on C-terminal SGSG spacer, order not given here

I0.5 for inhibition of Cdk4 activity (GST-Rb phosphorylation) [7]: 0.1 µM
B3: peptide 11 (extreme C-terminal peptide of p21^WAF1) (peptide)
peptide: H-TSMTDFYHSKRRLIFSKRKPSGSG
modifications: not fully specified (C-terminus); also: biotin on C-terminal SGSG spacer, order not given here

fold I0.5 against the full length peptide 10 [7]: ~1000 fold
Molecule: KRRLIFSK [untagged eight amino acid peptide KRRLIFSK]
